Data reported in paper PMC6908617, “Evolutionary conservation of the intrinsic disorder-based Radical-Induced Cell Death1 hub interactome” (Scientific Reports, 2019).
Where two headings read alike, the source gives them in different places.

B4: AtDREB2A(244–272) (peptide, UniProt O82132 244-272, looked up)
chain: WPNDVDQSHLDSSDMFDVDELLRDLNGDD
B5: AtRCD1-RST(499–572) (domain or fragment, Arabidopsis thaliana, UniProt Q8RY59 499-572, looked up)
chain: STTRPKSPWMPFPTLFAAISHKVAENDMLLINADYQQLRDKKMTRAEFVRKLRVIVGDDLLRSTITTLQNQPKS
notes: RST domain of Radical-Induced Cell Death1 (RCD1), Arabidopsis thaliana, residues 499-572; also called AtRST(499–572); Arabidopsis RST domain

What was measured:
[1] = target: ANAC013(254–274) (Arabidopsis thaliana) (UniProt F4IED2); experiment: ITC; RST domain in the syringe (100–300 µM) titrated into the TF fragment in the cell (10–30 µM); 25 °C; 50 mM Hepes, pH 7.4, 100 mM NaCl; one set of sites model
[2] = target: GmDREB2A(273–290) (Glycine max (soybean)); experiment: as above
[3] = target: B4; experiment: as above
[4] = target: RCD1 499-572 (Arabidopsis thaliana) (UniProt Q8RY59); experiment: ITC; conditions: cited from earlier work
[5] = target: RCD1 RST (Arabidopsis thaliana) (UniProt Q8RY59); conditions: cited from earlier work
[6] = target: B5; experiment: ITC; ANAC087(315–335) in the syringe (100–300 µM) titrated into the RST domain in the cell (10–30 µM); 25 °C; 50 mM Hepes, pH 7.4, 100 mM NaCl; one set of sites model; conditions: both partners purified
[7] = target: B5; experiment: ITC; RST domain in the syringe (100–300 µM) titrated into the TF fragment in the cell (10–30 µM); 25 °C; 50 mM Hepes, pH 7.4, 100 mM NaCl; one set of sites model; conditions: both partners purified
[8] = target: HvDRF1.1(255–273) (Hordeum vulgare (barley)); experiment: as above
[9] = target: T1, HvNAC013(176–346) (Hordeum vulgare (barley), UniProt F2EJH0 176-346); experiment: as above; conditions: both partners purified
T1 construct: HvNAC013, barley (Hordeum vulgare) NAC transcription factor, ID AK376297.1, residues 176-346; also called barley ortholog of ANAC046; source: plasmid from previous work
T1 sequence (looked up): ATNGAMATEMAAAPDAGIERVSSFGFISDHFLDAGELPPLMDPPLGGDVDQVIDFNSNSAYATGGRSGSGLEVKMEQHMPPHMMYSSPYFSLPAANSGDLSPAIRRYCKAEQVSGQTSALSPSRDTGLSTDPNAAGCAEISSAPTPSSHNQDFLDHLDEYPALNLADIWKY

ANAC013(254–274) (Arabidopsis thaliana), sequence (F4IED2 254-274): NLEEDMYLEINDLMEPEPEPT

GmRCD1-RST(483–583) (domain or fragment)
Kd [1]: 526 nM | dH [1]: -36.7 kJ/mol | stoichiometry N [1]: 0.94 | Kd [2]: 2590 nM | dH [2]: -23.5 kJ/mol | stoichiometry N [2]: 0.98 | Kd [3]: 320 nM | dH [3]: -38.7 kJ/mol | stoichiometry N [3]: 0.95

ANAC013 254-274 (from UniProt F4IED2)
Kd [4]: 9 nM

ANAC046 (from UniProt Q9SQQ6)
Kd [5]: 609 nM

B1: ANAC087(315–335) (peptide, UniProt Q9FK44 315-335, looked up)
chain: MVNGSKSYEDLCDLRGDLWDF
notes: NAC transcription factor ANAC087, Arabidopsis thaliana, AT5G18270, residues 315-335
Kd [6]: 1750 nM | dH [6]: -15.9 kJ/mol | stoichiometry N [6]: 0.93

B2: ANAC013(254–274;L266I) (peptide, UniProt F4IED2 254-274, looked up)
chain: NLEEDMYLEINDIMEPEPEPT
notes: ANAC013, Arabidopsis thaliana, AT1G32870, residues 254-274 with Leu266 to Ile; Probably made from the ANAC013(254–274) plasmid of previous work and purified in the same way; also called AtANAC013(254–274;L266I)
Kd [7]: 223 nM

B3: AtDREB2A(244–272;L264I) (peptide, UniProt O82132 244-272, looked up)
chain: WPNDVDQSHLDSSDMFDVDEILRDLNGDD
notes: DREB2A, Arabidopsis thaliana, AT5G05410, residues 244-272 with Leu264 to Ile; source: mutation by QuikChange
Kd [7]: 39 nM

B4
Kd [7]: 16 nM

B5
Kd [2]: 397 nM | dH [2]: -34.9 kJ/mol | Kd [8]: 450 nM | dH [8]: -48.7 kJ/mol | Kd [9]: 343 nM | dH [9]: -4.5 kJ/mol | stoichiometry N [9]: 1.03 | dH ([3]; both partners purified): -63.3 kJ/mol | stoichiometry N ([3]; both partners purified): 0.9
